Experimental data taken from publication PMC7954794, “Protein context shapes the specificity of SH3 domain-mediated interactions in vivo” (Nature Communications, 2021).

Tests used:
Assay type in all cases: cell-based, Saccharomyces cerevisiae
[1] = tested on: BBC1; assay: DHFR-PCA on solid medium, bait BBC1 (Fig. 1B); conditions: bait BBC1, label = prey
Source text: Supplement 41467_2021_21873_MOESM8_ESM.xlsx, sheet "Fig1B" | column: medsize; medrep; Ratio; Score

[2] = tested on: Lsb3; assay: Deep mutational scanning of Abp1 SH3, Abp1-Lsb3 DHFR-PCA (DMS score); conditions: Abp1-Lsb3 DHFR-PCA; WT = 0; Fig. S3C-D
Summary of the method: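 Each SH3 position is mutated to all possible codons within endogenous ABP1; the pooled strains are crossed to DHFR F[3]-tagged partners, diploids are enriched in NAT/HPH media, and two 72 h complementation selections at 30 °C follow, with Illumina counts of the locus yielding the score.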

[3] = tested on: Abp1 (1xFLAG); assay: Western blot expression level of Abp1 SH3 mutants (Fig. S3C-D)
Protocol: Precultures of yeast cells expressing baits fused with the DHFR F[1,2]-FLAG were grown overnight at 30 °C with agitation in synthetic complete medium. The next day, cells were expanded in synthetic complete medium to reach their exponential phase (OD600 of around 1.0), pelleted, and frozen at −80 °C. The equivalent of fifty OD600 of cells was resuspended in ice-cold yeast lysis buffer (10 mM Tris-HCl pH 7.4, 150 mM NaCl, 0.5 mM EDTA (Millipore Sigma), 1% Triton X-100 (Millipore Sigma), and one cOmplete Mini Protease Inhibitor Cocktail (Millipore Sigma) per 10 mL) with […] glass beads (Millipore Sigma) and disrupted at 4 °C by 10 cycles of 2 min vortexing and 2 min cooldown. The equivalent of […] of lysed cells was used for the immunoprecipitation of the bait proteins using FLAG-M2 agarose beads (Millipore Sigma). The beads were incubated with the cell lysates for 120 min at 4 °C with a slow rotation, followed by three washes with the yeast lysis buffer.
Protein extracts and affinity-purified baits from yeast and human lysed cells were migrated on 10% polyacrylamide gels. The separated proteins were then transferred to nitrocellulose membranes. Validation of correct protein loading was done with ponceau staining of the membranes. Before the primary antibody incubations, membranes were blocked in 5% milk. Protein signals were detected on an Amersham Imager 600RGB (GE Healthcare) following the incubation of the membranes with the appropriate HRP-conjugated secondary antibodies and the Clarity Western ECL Substrate (Bio-Rad). The antibodies used in this study are M2-HRP (A8592, Sigma, 1/50,000), rabbit anti-FLAG (F7425, Sigma, 1/1000), PAK (SC-881, Santa Cruz, 1/200), p130cas/BCAR1 (SC-860, Santa Cruz, 1/200), actin (Cell Signaling Technology, 1/2000), anti-mouse HRP (Cell Signaling Technology, 1/10,000) and anti-rabbit HRP (Cell Signaling Technology, 1/10,000). The quantification of the WB signals was performed with the Amersham Imager 600 analysis software (GE Healthcare). […]
C, WB comparing expression levels of selected Abp1 SH3 mutants with WT Abp1. An asterisk represents a stop codon, which inhibits translation of the 1xFLAG epitope. D, Quantification of the relative level of expression of Abp1 SH3 mutants by WB as in C, (log2 of Abp1 SH3 mutant/Abp1 WT ratio, WB relative level of expression of 0 for WT Abp1) compared to their DMS scores (Hua2 (left): Pearson’s r = -0.34, p-value = 0.46, Lsb3 […]
(right): Pearson’s r = -0.81, p-value = 0.03). […]
Most […]
interface residues sensitive to mutations, such as Y7, E13, E16, V3 1, D32, D34, L48 and Y53, specifically affect Hua2 PPI. See also Supplementary Table 4.

B1: YBL039C (protein, UniProt P28274 1-579, looked up)
CTP synthase 1: MKYVVVSGGVISGIGKGVLASSTGMLMKTLGLKVTSIKIDPYMNIDAGTMSPLEHGECFVLDDGGETDLDLGNYERYLGVTLTKDHNITTGKIYSHVIAKERKGDYLGKTVQIVPHLTNAIQDWIERVAKIPVDDTGMEPDVCIIELGGTVGDIESAPFVEALRQFQFKVGKENFALIHVSLVPVIHGEQKTKPTQAAIKGLRSLGLVPDMIACRCSETLDKPTIDKIAMFCHVGPEQVVNVHDVNSTYHVPLLLLEQKMIDYLHARLKLDEISLTEEEKQRGLELLSKWKATTGNFDESMETVKIALVGKYTNLKDSYLSVIKALEHSSMKCRRKLDIKWVEATDLEPEAQESNKTKFHEAWNMVSTADGILIPGGFGVRGTEGMVLAARWARENHIPFLGVCLGLQIATIEFTRSVLGRKDSHSAEFYPDIDEKNHVVVFMPEIDKETMGGSMRLGLRPTFFQNETEWSQIKKLYGDVSEVHERHRHRYEINPKMVDELENNGLIFVGKDDTGKRCEILELKNHPYYIATQYHPEYTSKVLDPSKPFLGLVAASAGILQDVIEGKYDLEAGENKFNF
medrep (log2 median colony size normalized to plate background, PCA score) ([1]; 2-4 replicates): 2.387
Ratio (SH3-deleted/WT medrep) ([1]; only significant differences showed, PPIs completely lost have a ratio of 0.1 and the gained PPIs 2.5): 0.1

B2: WT (protein, UniProt P15891 2-592, looked up)
Actin-binding protein: ALEPIDYTTHSREIDAEYLKIVRGSDPDTTWLIISPNAKKEYEPESTGSSFHDFLQLFDETKVQYGLARVSPPGSDVEKIIIIGWCPDSAPLKTRASFAANFAAVANNLFKGYHVQVTARDEDDLDENELLMKISNAAGARYSIQTSSKQQGKASTPPVKKSFTPSKSPAPVSKKEPVKTPSPAPAAKISSRVNDNNDDDDWNEPELKERDFDQAPLKPNQSSYKPIGKIDLQKVIAEEKAKEDPRLVQKPTAAGSKIDPSSDIANLKNESKLKRDSEFNSFLGTTKPPSMTESSLKNDDDKVIKGFRNEKSPAQLWAERKAKQNSGNAETKAEAPKPEVPEDEPEGEPDVKDLKSKFEGLAASEKEEEEMENKFAPPPKKSEPTIISPKPFSKPQEPVKAEEAEQPKTDYKKIGNPLPGMHIEADNEEEPEENDDDWDDDEDEAAQPPLPSRNVASGAPVQKEEPEQEEIAPSLPSRNSIPAPKQEEAPEQAPEEEIEEEAEEAAPQLPSRSSAAPPPPPRRATPEKKPKENPWATAEYDYDAAEDNELTFVENDKIINIEFVDDDWWLGELEKDGSKGLFPSNYVSLGN
DMS score Lsb3 [2]: 0
Ratio Mutant/WT Flag ([3]; Western blot Flag signal of mutant relative to WT): 1
Flag (2 bands) ([3]; Western blot, Flag signal, 2 bands): 36554
